From publication PMC3206013, “Unique Interplay between Sugar and Lipid in Determining the Antigenic Potency of Bacterial Antigens for NKT Cells” (PLoS Biology, 2011)

Target: biotinylated mouse CD1d/β2m, wild type, loaded with α-GalCer (mouse) (UniProt P11609)
Assay: SPR; α-GalCer loaded

Kd: 39.9 nM
Substance: Vα14Vβ8.2 iNKT TCR (mouse invariant NKT cell T cell receptor)
